# Molecular target: 6×His-tagged receptor-binding domain (RBD) of SARS-CoV-2 spike, B.1.617.2 (Delta) (SARS-CoV-2) (UniProt P0DTC2)
# Assay: SPR
substance,measurement,value
ACE2(18–615)-QMP: monomeric ACE2 peptidase domain (residues 18–615) fused to the N-terminal end of QMP human albumin (from UniProt Q9BYF1-1;P02768),Kd,80.3 nM
same,koff,0.0258 s⁻¹
same,kon,321000 M⁻¹ s⁻¹
ACE2(18–615)-WT: monomeric ACE2 peptidase domain (residues 18–615) fused to the N-terminal end of fu (from UniProt Q9BYF1-1;P02768),Kd,175 nM
same,koff,0.0083 s⁻¹
same,kon,47000 M⁻¹ s⁻¹
ACE2(18–740)-QMP: truncated dimeric human ACE2 (residues 18–740) fused to the N-terminal end of engi (from UniProt Q9BYF1-1;P02768),Kd,2 nM
same,koff,0.00024 s⁻¹
same,kon,119000 M⁻¹ s⁻¹
ACE2(18–740)-WT: truncated dimeric human ACE2 (residues 18–740) fused to the N-terminal end of full- (from UniProt Q9BYF1-1;P02768),Kd,1.3 nM
same,koff,0.00021 s⁻¹
same,kon,159000 M⁻¹ s⁻¹
ACE2-YTY-QMP: dimeric ACE2 with T27Y/L79T/N330Y (YTY) fused to QMP albumin (from UniProt Q9BYF1-1;P02768),Kd,0.2 nM
same,koff,4e-05 s⁻¹
same,kon,201000 M⁻¹ s⁻¹
